The test deals with VHL-ELOB-ELOC (VBC) complex (UniProt P40337 54-213; Q15370 1-104; Q15369 17-112). Nature of the test: fluorescence polarisation; competitive FP for fragment screening, 384-well plates; 0.5 uM VBC, 20 nM FITC peptide, 10 mM HEPES pH 7.5, 0.0025% Tween 20, 50 mM NaCl, 1 mM EDTA, 1 mM DTT; small-molecule competitors (VH032 as reference). The conditions noted are these: both partners purified.

Non-standard residues stand in square brackets, D forms with d. No end group written: not given here. *: point of attachment. FITC = O=C1OC2(c3ccc(O)cc3Oc3cc(O)ccc32)c2ccc(NC(=S)*)cc21; Hyp = O=C(O)[C@@H]1C[C@@H](O)CN1

B1: FITC-LEALA-HyP-YIPA peptide (peptide)
peptide: {FITC}-LEALA[Hyp]YIPA
As for B1, the binding result is listed as “binds”.

For the origin of these results see paper PMC11779939, “Identification of novel 7-hydroxycoumarin derivatives as ELOC binders with potential to modulate CRL2 complex formation” (Scientific Reports, 2025).
